Assay results taken from patent US20150184163A1.

Molecular target: TSLP Receptor (TSLPR), heterodimer of the IL7 receptor alpha (IL7Rα) chain and the TSLP-specific receptor chain (TSLPR; Crlf2), on mouse DRG sensory neurons (mouse) (UniProt Q8CII9)
Experiment: cell-based or functional assay

TSLP Receptor (TSLPR), heterodimer of the IL7 receptor alpha (IL7Rα) chain and the TSLP-specific receptor chain (TSLPR; Crlf2), on mouse DRG sensory neurons (mouse), sequence (Q8CII9 20-359, chain 1 of 2): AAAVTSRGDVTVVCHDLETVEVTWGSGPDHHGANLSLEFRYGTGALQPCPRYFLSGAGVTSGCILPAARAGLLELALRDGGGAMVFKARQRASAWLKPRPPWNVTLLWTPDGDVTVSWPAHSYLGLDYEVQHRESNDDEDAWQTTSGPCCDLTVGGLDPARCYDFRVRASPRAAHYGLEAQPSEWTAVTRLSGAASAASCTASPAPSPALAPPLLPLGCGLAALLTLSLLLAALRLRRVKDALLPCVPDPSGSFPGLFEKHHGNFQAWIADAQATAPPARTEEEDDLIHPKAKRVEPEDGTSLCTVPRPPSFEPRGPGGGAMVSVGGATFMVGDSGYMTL
TSLP Receptor (TSLPR), heterodimer of the IL7 receptor alpha (IL7Rα) chain and the TSLP-specific receptor chain (TSLPR; Crlf2), on mouse DRG sensory neurons (mouse), sequence (P16872 21-459, chain 2 of 2, further chain): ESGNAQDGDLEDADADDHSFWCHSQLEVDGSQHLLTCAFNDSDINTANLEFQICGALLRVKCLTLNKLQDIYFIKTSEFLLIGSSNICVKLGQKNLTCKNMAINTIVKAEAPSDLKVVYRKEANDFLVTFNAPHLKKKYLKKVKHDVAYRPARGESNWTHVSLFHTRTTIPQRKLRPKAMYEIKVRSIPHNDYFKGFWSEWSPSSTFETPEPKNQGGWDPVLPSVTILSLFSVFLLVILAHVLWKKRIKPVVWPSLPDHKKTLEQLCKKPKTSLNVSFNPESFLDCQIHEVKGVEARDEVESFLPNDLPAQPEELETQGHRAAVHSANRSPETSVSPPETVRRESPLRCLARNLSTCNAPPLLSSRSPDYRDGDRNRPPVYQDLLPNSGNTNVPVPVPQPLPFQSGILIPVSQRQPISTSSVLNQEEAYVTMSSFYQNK

prevalence of DRG neurons with increases in intracellular Ca2+ following TSLP application (ratiometric Ca2+ imaging): 4.1%
Substance: Thymic Stromal Lymphopoietin (TSLP) (ligand)
